Reference: article PMC2570500 (EMBO Reports, 2008)
Each block holds one binder with its values, some of them ahead of it.

Molecular target: N-terminal domain of Saccharomyces cerevisiae Hsp82 (1–210) (Saccharomyces cerevisiae, UniProt P02829 1-210)
Experiment: NMR titration

Sequence of N-terminal domain of Saccharomyces cerevisiae Hsp82 (1–210) (P02829 1-210): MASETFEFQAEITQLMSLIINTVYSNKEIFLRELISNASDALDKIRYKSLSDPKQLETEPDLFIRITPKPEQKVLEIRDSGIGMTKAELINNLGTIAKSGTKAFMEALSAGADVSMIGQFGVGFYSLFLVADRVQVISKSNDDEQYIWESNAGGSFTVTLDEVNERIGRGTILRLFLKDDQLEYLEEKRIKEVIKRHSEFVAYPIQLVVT

binding result: binds
B1: CS domain of Arabidopsis SGT1a (149–253), NMR sample (domain or fragment)
chain: TAKYRHEYYQKPEEVVVTVFAKGIPKQNVNIDFGEQILSVVIEVPGEDAYYLQPRLFGKIIPDKCKYEVLSTKIEICLAKADIITWASLEHGKGPAVLPKPNVSS

Kd: 27 ± 3 µM
B2: CS domain of S. cerevisiae Sgt1 (176–290) (domain or fragment)
chain: ETAPQESPKFKIDWYQSSTSVTISLFTVNLPESKEQVNIYISPNDRRTLSISYQVPKSGSEFQYNAKLSHEVDPKAVSLKIFPKKLEITLSKIDSTQWKKLEEDILTESSRLSDE
